Results: US20140127212A1 (AstraZeneca / MedImmune, published 2014)

B1: Antibody 2 scFv (scFv, V domains shown)
VH: QVQLVQSGAEVKKPGATVKLSCKVYGYIFTDYNIYWVRQAPGKGLEWMGLIDPDNGETFYAEKFQGRATMTADTSSDRAYMELTSLTFEDTATYYCATVSLRSAKGGYDYWGRGTLVTVSS
VL: QSVLTQPPSVSGAPGQRVTISCTGSSSNIGAGYDVHWYQQLPGTAPKLLIYDNFNRPSGVPDRFSGSKSGTSASLAIIGLQTEDEADYYCQSYDSSLSGSLFGTGTKLTVL
notes: Purified scFv
B2: Antibody 5 scFv (scFv, V domains shown)
VH: QVQLVQSGAEVKKPGATVKLSCKVYGYIFTDYNIYWVRQAPGKGLEWMGLIDPDNGETFYAEKFQGRATMTADTSSDRAYMELTSLTFEDTATYYCATVMGKWIKGGYDYWGRGTLVTVSS
VL: QSVLTQPPSVSGAPGQRVTISCTGSSSNIGAGYDVHWYQQLPGTAPKLLIYDNFNRPSGVPDRFSGSKSGTSASLAIIGLQTEDEADYYCQSYDSTKHTSPFGTGTKLTVL
notes: Purified scFv
B3: Antibody 21 scFv (scFv, V domains shown)
VH: QVQLVQSGAEVKKPGATVKLSCKVYGYIFTDYNIYWVRQAPGKGLEWMGLIDPDNGETFYAEKFQGRATMTADTSSDRAYMELTSLTFEDTATYYCATVTLKSAKGGYDYWGRGTLVTVSS
VL: QSVLTQPPSVSGAPGQRVTISCTGSSSNIGAGYDVHWYQQLPGTAPKLLIYDNFNRPSGVPDRFSGSKSGTSASLAIIGLQTEDEADYYCQSYDSSSQLSPFGTGTKLTVL
notes: Purified scFv
B4: Antibody 15 scFv (scFv, V domains shown)
VH: QVQLVQSGAEVKKPGATVKLSCKVYGYIFTDYNIYWVRQAPGKGLEWMGLIDPDNGETFYAEKFQGRATMTADTSSDRAYMELTSLTFEDTATYYCATVTLKTAKGGYDYWGRGTLVTVSS
VL: QSVLTQPPSVSGAPGQRVTISCTGSSSNIGAGYDVHWYQQLPGTAPKLLIYDNFNRPSGVPDRFSGSKSGTSASLAIIGLQTEDEADYYCQSYDSHKGYGGFGTGTKLTVL
notes: Purified scFv
B5: Antibody 23 scFv (scFv, V domains shown, not shown: small tags and cut ends)
VH: QVQLVQSGAEVKKPGATVKLSCKVYGYIFTDYNIYWVRQAPGKGLEWMGLIDPDNGETFYAEKFQGRATMTADTSSDRAYMELTSLTFEDTATYYCATVMGKWIKGGYDYWGRGTLVTVSS
VL: QSVLTQPPSVSGAPGQRVTISCTGSSSNIGAGYDVHWYQQLPGTAPKLLIYDNFNRPSGVPDRFSGSKSGTSASLAIIGLQTEDEADYYCQSYDSHHLYSSFGTGTKLTVL
notes: Purified scFv
B6: Antibody 12 scFv (scFv, V domains shown)
VH: QVQLVQSGAEVKKPGATVKLSCKVYGYIFTDYNIYWVRQAPGKGLEWMGLIDPDNGETFYAEKFQGRATMTADTSSDRAYMELTSLTFEDTATYYCATVMGKWIKGGYDYWGRGTLVTVSS
VL: QSVLTQPPSVSGAPGQRVTISCTGSSSNIGAGYDVHWYQQLPGTAPKLLIYDNFNRPSGVPDRFSGSKSGTSASLAIIGLQTEDEADYYCQSYDSSIDHSPFGTGTKLTVL
notes: Purified scFv
B7: Antibody 16 scFv (scFv, V domains shown)
VH: QVQLVQSGAEVKKPGATVKLSCKVYGYIFTDYNIYWVRQAPGKGLEWMGLIDPDNGETFYAEKFQGRATMTADTSSDRAYMELTSLTFEDTATYYCATVSLKSAKGGYDYWGRGTLVTVSS
VL: QSVLTQPPSVSGAPGQRVTISCTGSSSNIGAGYDVHWYQQLPGTAPKLLIYDNFNRPSGVPDRFSGSKSGTSASLAIIGLQTEDEADYYCQSYDSRHHHAPFGTGTKLTVL
notes: Purified scFv
B8: Antibody 11 scFv (scFv, V domains shown)
VH: QVQLVQSGAEVKKPGATVKLSCKVYGYIFTDYNIYWVRQAPGKGLEWMGLIDPDNGETFYAEKFQGRATMTADTSSDRAYMELTSLTFEDTATYYCATVMGKWIKGGYDYWGRGTLVTVSS
VL: QSVLTQPPSVSGAPGQRVTISCTGSSSNIGAGYDVHWYQQLPGTAPKLLIYDNFNRPSGVPDRFSGSKSGTSASLAIIGLQTEDEADYYCQSYDSPTLTSPFGTGTKLTVL
notes: Purified scFv
B9: Antibody 4 scFv (scFv, V domains shown)
VH: QVQLVQSGAEVKKPGATVKLSCKVYGYIFTDYNIYWVRQAPGKGLEWMGLIDPDNGETFYAEKFQGRATMTADTSSDRAYMELTSLTFEDTATYYCATVMGKWIKGGYDYWGRGTLVTVSS
VL: QSVLTQPPSVSGAPGQRVTISCTGSSSNIGAGYDVHWYQQLPGTAPKLLIYDNFNRPSGVPDRFSGSKSGTSASLAIIGLQTEDEADYYCQSYDSRGGHSPFGTGTKLTVL
notes: Purified scFv
B10: Antibody 8 scFv (scFv, V domains shown)
VH: QVQLVQSGAEVKKPGATVKLSCKVYGYIFTDYNIYWVRQAPGKGLEWMGLIDPDNGETFYAEKFQGRATMTADTSSDRAYMELTSLTFEDTATYYCATVLGRWIKGGYDYWGRGTLVTVSS
VL: QSVLTQPPSVSGAPGQRVTISCTGSSSNIGAGYDVHWYQQLPGTAPKLLIYDNFNRPSGVPDRFSGSKSGTSASLAIIGLQTEDEADYYCQSYDSPTHTSPFGTGTKLTVL
notes: Purified scFv
B11: Antibody 13 scFv (scFv, V domains shown)
VH: QVQLVQSGAEVKKPGATVKLSCKVYGYIFTDYNIYWVRQAPGKGLEWMGLIDPDNGETFYAEKFQGRATMTADTSSDRAYMELTSLTFEDTATYYCATVMGKWIKGGYDYWGRGTLVTVSS
VL: QSVLTQPPSVSGAPGQRVTISCTGSSSNIGAGYDVHWYQQLPGTAPKLLIYDNFNRPSGVPDRFSGSKSGTSASLAIIGLQTEDEADYYCQSYDSNILYSPFGTGTKLTVL
notes: Purified scFv
B12: Antibody 10 scFv (scFv, V domains shown)
VH: QVQLVQSGAEVKKPGATVKLSCKVYGYIFTDYNIYWVRQAPGKGLEWMGLIDPDNGETFYAEKFQGRATMTADTSSDRAYMELTSLTFEDTATYYCATVSLRAAKGGYDYWGRGTLVTVSS
VL: QSVLTQPPSVSGAPGQRVTISCTGSSSNIGAGYDVHWYQQLPGTAPKLLIYDNFNRPSGVPDRFSGSKSGTSASLAIIGLQTEDEADYYCQSYDSEQELAPFGTGTKLTVL
notes: Purified scFv
B13: Antibody 14 scFv (scFv, V domains shown)
VH: QVQLVQSGAEVKKPGATVKLSCKVYGYIFTDYNIYWVRQAPGKGLEWMGLIDPDNGETFYAEKFQGRATMTADTSSDRAYMELTSLTFEDTATYYCATVMGKWIKGGYDYWGRGTLVTVSS
VL: QSVLTQPPSVSGAPGQRVTISCTGSSSNIGAGYDVHWYQQLPGTAPKLLIYDNFNRPSGVPDRFSGSKSGTSASLAIIGLQTEDEADYYCQSYDSHHRHSPFGTGTKLTVL
notes: Purified scFv
B14: Antibody 9 scFv (scFv, V domains shown)
VH: QVQLVQSGAEVKKPGATVKLSCKVYGYIFTDYNIYWVRQAPGKGLEWMGLIDPDNGETFYAEKFQGRATMTADTSSDRAYMELTSLTFEDTATYYCATVTLRSAKGGYDYWGRGTLVTVSS
VL: QSVLTQPPSVSGAPGQRVTISCTGSSSNIGAGYDVHWYQQLPGTAPKLLIYDNFNRPSGVPDRFSGSKSGTSASLAIIGLQTEDEADYYCQSYDSPSSTSPFGTGTKLTVL
notes: Purified scFv
B15: Antibody 17 scFv (scFv, V domains shown)
VH: QVQLVQSGAEVKKPGATVKLSCKVYGYIFTDYNIYWVRQAPGKGLEWMGLIDPDNGETFYAEKFQGRATMTADTSSDRAYMELTSLTFEDTATYYCATVTLKSAKGGYDYWGRGTLVTVSS
VL: QSVLTQPPSVSGAPGQRVTISCTGSSSNIGAGYDVHWYQQLPGTAPKLLIYDNFNRPSGVPDRFSGSKSGTSASLAIIGLQTEDEADYYCQSYDSQSSTSPFGTGTKLTVL
notes: Purified scFv
B16: Antibody 6 scFv (scFv, V domains shown)
VH: QVQLVQSGAEVKKPGATVKLSCKVYGYIFTDYNIYWVRQAPGKGLEWMGLIDPDNGETFYAEKFQGRATMTADTSSDRAYMELTSLTFEDTATYYCATVMGKWIKGGYDYWGRGTLVTVSS
VL: QSVLTQPPSVSGAPGQRVTISCTGSSSNIGAGYDVHWYQQLPGTAPKLLIYDNFNRPSGVPDRFSGSKSGTSASLAIIGLQTEDEADYYCQSYDSTMRHGPFGTGTKLTVL
notes: Purified scFv
B17: Antibody 7 scFv (scFv, V domains shown)
VH: QVQLVQSGAEVKKPGATVKLSCKVYGYIFTDYNIYWVRQAPGKGLEWMGLIDPDNGETFYAEKFQGRATMTADTSSDRAYMELTSLTFEDTATYYCATVTLKSAKGGYDYWGRGTLVTVSS
VL: QSVLTQPPSVSGAPGQRVTISCTGSSSNIGAGYDVHWYQQLPGTAPKLLIYDNFNRPSGVPDRFSGSKSGTSASLAIIGLQTEDEADYYCQSYDSDRRNSPFGTGTKLTVL
notes: Purified scFv
B18: Antibody 24 scFv (scFv, V domains shown, not shown: small tags and cut ends)
VH: QVQLVQSGAEVKKPGATVKLSCKVYGYIFTDYNIYWVRQAPGKGLEWMGLIDPDNGETFYAEKFQGRATMTADTSSDRAYMELTSLTFEDTATYYCATVTLKTAKGGYDYWGRGTLVTVSS
VL: QSVLTQPPSVSGAPGQRVTISCTGSSSNIGAGYDVHWYQQLPGTAPKLLIYDNFNRPSGVPDRFSGSKSGTSASLAIIGLQTEDEADYYCQSYDSRNGYGGFGTGTKLTVL
notes: Purified scFv
B19: Antibody 18 scFv (scFv, V domains shown)
VH: QVQLVQSGAEVKKPGATVKLSCKVYGYIFTDYNIYWVRQAPGKGLEWMGLIDPDNGETFYAEKFQGRATMTADTSSDRAYMELTSLTFEDTATYYCATVLLRSAKGGYDYWGRGTLVTVSS
VL: QSVLTQPPSVSGAPGQRVTISCTGSSSNIGAGYDVHWYQQLPGTAPKLLIYDNFNRPSGVPDRFSGSKSGTSASLAIIGLQTEDEADYYCQSYDSHLQLSPFGTGTKLTVL
notes: Purified scFv
B20: Antibody 3 scFv (scFv, V domains shown)
VH: QVQLVQSGAEVKKPGATVKLSCKVYGYIFTDYNIYWVRQAPGKGLEWMGLIDPDNGETFYAEKFQGRATMTADTSSDRAYMELTSLTFEDTATYYCATVMGKWIKGGYDYWGRGTLVTVSS
VL: QSVLTQPPSVSGAPGQRVTISCTGSSSNIGAGYDVHWYQQLPGTAPKLLIYDNFNRPSGVPDRFSGSKSGTSASLAIIGLQTEDEADYYCQSYDSTFNHAPFGTGTKLTVL
notes: Purified scFv
B21: Antibody 22 scFv (scFv, V domains shown)
VH: QVQLVQSGAEVKKPGATVKLSCKVYGYIFTDYNIYWVRQAPGKGLEWMGLIDPDNGETFYAEKFQGRATMTADTSSDRAYMELTSLTFEDTATYYCATVTLKSAKGGYDYWGRGTLVTVSS
VL: QSVLTQPPSVSGAPGQRVTISCTGSSSNIGAGYDVHWYQQLPGTAPKLLIYDNFNRPSGVPDRFSGSKSGTSASLAIIGLQTEDEADYYCQSYDSSGGYAPFGTGTKLTVL
notes: Purified scFv

Target: T1, cynomolgus IgE (recombinant chimaeric D12 variable region and cynomolgus IgE constant region) (cynomolgus monkey (constant region); …)
T1 construct: The entries may hold a leader peptide; also called cyno IgE; cynomolgus monkey IgE
T1 sequence (heavy, as listed by the source limits assumed, chain 1 of 2): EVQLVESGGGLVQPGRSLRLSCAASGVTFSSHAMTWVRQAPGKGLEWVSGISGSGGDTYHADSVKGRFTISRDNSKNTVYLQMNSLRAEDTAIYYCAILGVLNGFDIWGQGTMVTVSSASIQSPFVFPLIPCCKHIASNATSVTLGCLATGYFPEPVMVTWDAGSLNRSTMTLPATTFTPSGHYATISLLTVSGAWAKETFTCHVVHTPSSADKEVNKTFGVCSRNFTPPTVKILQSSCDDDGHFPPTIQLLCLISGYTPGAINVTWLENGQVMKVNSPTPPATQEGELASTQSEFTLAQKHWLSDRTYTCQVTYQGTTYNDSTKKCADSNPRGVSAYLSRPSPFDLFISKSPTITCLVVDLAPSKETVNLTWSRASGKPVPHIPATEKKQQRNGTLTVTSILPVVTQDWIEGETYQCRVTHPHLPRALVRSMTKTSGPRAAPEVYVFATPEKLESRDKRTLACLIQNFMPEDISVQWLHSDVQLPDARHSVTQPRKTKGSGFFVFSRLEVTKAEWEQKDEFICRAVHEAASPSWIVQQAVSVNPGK
T1 sequence (light, as listed by the source limits assumed, chain 2 of 2): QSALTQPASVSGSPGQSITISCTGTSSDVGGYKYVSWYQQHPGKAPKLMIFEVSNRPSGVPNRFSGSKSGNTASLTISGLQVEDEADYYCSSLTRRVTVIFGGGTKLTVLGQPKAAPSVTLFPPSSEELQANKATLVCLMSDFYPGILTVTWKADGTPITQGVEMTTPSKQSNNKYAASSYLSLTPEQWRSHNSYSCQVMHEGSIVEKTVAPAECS
Test: HTRF competition; scFv titrated vs Eu-cryptate cynomolgus IgE binding to human FcεRI-Fc; geomean

Binder | IC50 [nM]
B1 | 317
B2 | 6
B3 | 65
B4 | 172
B5 | 6
B6 | 7
B7 | 63
B8 | 7
B9 | 5
B10 | 12
B11 | 7
B12 | 116
B13 | 15
B14 | 132
B15 | 109
B16 | 11
B17 | 186
B18 | 111
B19 | 110
B20 | 18
B21 | 68
